Data: a protein production outcome set (Wang et al. 2014)

Experiment: label from the status in PepcDB records

Sequence | protein production
MTSQVSSTTEQADEPVVGEQRKPAGAKDVRRLDRVIIRFAGDSGDGMQLTGDRFTSETASFGNDLSTLPNFPAEIRAPAGTLPGVSSFQLHFADHDILTPGDAPNVLVAMNPAALKANVSDLPRGAEVIVNTDEFTKRAMQKVGYGTSPLEDGSLDGYSVHPVPLTTLTVEALKEFELSRKEAERSKNMFALGLLSWMYHRPTEGTEKFLTTKFAKKPAIAAANIAAFRAGWNFGETTEDFAVSYEVAPAQSAFPAGTYRNISGNLALSYGLIAASRQADLPLYLGSYPITPASDILHELSKHKNFGVRTFQAEDEIAGIGAALGAAFGGSLAVTTTSGPGVALKSETIGLAVSLELPLLVVDIQRGGPSTGLPTKTEQADLLQAMYGRNGEAPVPVVAPRTPADCFEAAIEAARIALTYRTPVFLLSDGYLANGSEPWRIPETDGLPDLRVRFAQGPNHTLDDGTEVFWPYKRDPGTLARPWAIPGTPGLEHRIGGIEKQDGTGNISYDPANHDFMVRTRQAKIDGIDVPDIEVDDPDGASALVLGWGSTYGPITAAVRRLRTAGESIAQAHLRHLNPFPSNLGAVLKGYDKVVIPEMNLGQLATLIRAKYLVDAHSYNQVNGMPFKAEQLATALKEAIDD | failed
MTSSFTDYCKFFNRILSEVQETQEQAIIKGAHLVSEAVMNGGRFYVFGSGHSHMIAEEIYNRAGGLALVTAILPPELMLHERPNKSTYLERIEGLSKSYLKLHQVTNKDVIMIISNSGRNTVPVEMAIESRNIGAKVIAMTSMKHSQKVTSRHKSGKKLYEYADVVLDNGAPVGDAGFQIANSEIYSGATSDSIGCFLAQALIVETLHLLVQQGFEPPVFKSSNVDGADLYNDKIFNEYVKW | not failed
MTSSINSSPLNAIADQALGLDDAAVPAAIEPASDEPSFASLGLSPEIVSALEAAGYVKPTPVQQRAIPAGIAGRDLLVSSPTGSGKTAAFMLPAIERFAQLQKTLAQQPRTPREPSQGDRRVRRPQPVARPGLLVLTPTRELAMQVTTAASTYGKHLKRLRTVSILGGVAYGQQLMLLAKNPEILVATPGRLLDHLERGRIDLSELKMLVLDEADRMLDMGFIDDIETIVAATPASRQTMLFSATLDGKIGSLTGRLLKDPERIEIQQRLESRTNIAQTVHYVDDRDHKDRLLDHLLRDDALDQAIIFTATKIDADQLAGRLADAGFESAALHGDLPQGARNRTIRALRERRVRVLVATDVAARGIDIPGITHVFNYDLPKFAEDYVHRIGRTGRAGRSGTAVSLVHHAEQGALKRIERFVRSPLPVNVIEGFEPRKAPARTGSTGGRGRPGGGNGGRRFGGKPGGGHAGAGRSYGGGNGGGWSGKPSGSRDGGPRRDGQRSSGPRRSNSAS | failed
MTTDAPALLPALQARVRETAHARTPAGCPCGAATLADRPDATVVRHAGTVAKAHAADADPAELSLRVTAAARLPGVLLPPLAPAPVDLHGRLVTYWPYGTPVDPEDPDAAPWEAAATLLARLHRTPVPAALPPMRGPAKAARAAARLSDTARDHPATAPVLAAWAALPAWARGEAAMPGPAALCHGDLHLGQLIRHPAPDGPWLLIDVDDLGTGVPAWDLARPAAWYACGLLPPEEWHRFLTAYRAAGGPAVPAEGDPWPALDVPARALTAQTAARAVAKAVLAGRALDEVERSLVDACARMASVRPADPRG | failed
MTTEPVDYVSPLVGTQSKHALSTGNTYPAIAMPWGMNFWVAQTGKMGDGWAYTYDADKIRGFKQTHQPSPWINDYGQFAIMPVTGKVVFDQDQRASWFSHKAEVAKPYYYKVYLADHDVTTEIAPTSRAAMFRFTFPESKDSYVVVDAFDNGSYVKVIPEENKIIGYTTKNSGGVPENFKNYFVLVFDKPFTFTAAVTNGNIRPGELEHHHHHH | failed
MTTESAWTRWPSREALGREGLSRPRRMLAWTVRALVLAMLLWGAFSSSHVHGWGAVAAAAGVLLAAGASWAFFRTTLQHRLWPSLALIAVLLGIAIVAQTAGFQVPALVIWCGCAVSALERLPLAAALPVTTAALAAYAAVDNDVWLTTAATIAGLFLAGYVLRLDAEARGSAQRLLAQERAARAAETQSAALAERARIAREIHDVLAHSLSAQLVHLEAARLLIERGADREQILGRVVAARGMAREGLAETRQALSALRGEISPLEDFLSELVAFEDGADVTVSGERRLLTAEASQAVRRVAQEALTNVRKHAPGAKVQVKLEYGERQVTLHVRDSGGKPGDLTGSGAGYGLLGMRERAELLGGSLEAGREEKGFVVTLKVPA | failed
MTTFNYTNILTQAVDELSESQSYKGLFHQHKDGDPLPSAKSLYKIVELARAIIFPGYFGNSTVNSHTINYHIGVNVETLFGLLTEQILAGLCFGQENSKNATDDNEPCRETASLLAARFISKLPELRRILATDVEAAYYGDPAATCFGEIISCYPAIRAISNYRIAHELLILGVPLIPRFITEMAHSETGIDIHPGAQIGHHFTIDHGTGVVIGATSIIGNNVKLYQGVTLGAKSFPLDNNGNPIKGIPRHPILEDDVIVYSNATILGRVTIGKGATVGGNIWVTENVPAGSRIVQRKNKDELEHHHHHH | not failed
MTTFSVIMATYNRGRHILPSIQSVLRQTCRDFELLVVGDCCTDDTADVVRALASPQIRWLNLPERGGSQAFPNNAGIEMSRGRYIAYLGHDDIWAPDHLQALADLFGHTQQPDFAVSGAIFHGPRASNFRWVTGIFDESDTALKHFFPPSSFGHRRDVADRIGKWRHPKEITAPVDADFLLRAARFGMNFVSTQRITVQKFAAGHRYLSYTGHTSDEQERMVRRMARPGYDGYLASELAKAKAAGGYMVVVHPDYERYENGQVSTQNAMAKGVVRPDLRNLRQREVIKQDNSPKALDWVPHQSGGDWVLWAGRNPRPKLLVPFKYAGKARIRLDIRHPLREALTKLKLSVNGQPAVASLGKVRQEGNLWNAQATFETALRRDDHTILELHLTRLQRPAARNGIGVGDMEVTPLGWRSIVAKGTRLLAKFRPAC | failed
MTTIDPRSELVDGRRRAGARVDAVGAAALLSAAARVGVVCHVHPDADTIGAGLALALVLDGCGKRVEVSFAAPATLPESLRSLPGCHLLVRPEVMRRDVDLVVTVDIPSVDRLGALGDLTDSGRELLVIDHHASNDLFGTANFIDPSADSTTTMVAEILDAWGKPIDPRVAHCIYAGLATDTGSFRWASVRGYRLAARLVEIGVDNATVSRTLMDSHPFTWLPLLSRVLGSAQLVSEAVGGRGLVYVVVDNREWVAARSEEVESIVDIVRTTQQAEVAAVFKEVEPHRWSVSMRAKTVNLAAVASGFGGGGHRLAAGYTTTGSIDDAVASLRAALGLEHHHHHH | not failed
MTTIFIEKATILDAEKLTEIMTRTFDEEEKRWLCGQGDVIDYNIQPPGYSSVEMMRYSIEELDCYKVIMDGKIIGGIIVTISGKSYGRIDRIFVEPVYQGKGIGSYVIKLIEEEYPSIRIWDLETSSRQLNNHHFYKKMGYETIFKSEDEYCYVKRIT | failed
MTTILTVFTHAGGAGKTSIAGNIAHEFAQRGQHVLLIDGDPQSNLTTNMGVQDAELHETLFDVLSGDAPLPAPRHVHGFDLIPAVIDLAEVEPSIPGRVGGILALRDALQKESGRWDTVIIDSPPSLGQLAAACALAADALVVPIMTRSKGLNALRGLNRVMPQYHRLRPDLHVAAYVPTMCKSNRKEDSELLGIVREDLPHVTSPIVERGAVWNGAAEKGLPVTVFAPRSKEAEEIRKITSDLVEFLQRNAPERGER | failed
MTTPIALRDWRLLAAGCGGLLLLAAAITLHSHWGDFLQWCLATQITLHRYLVMYLLLLNNHQYSGGIWLLVGAFLYGVLHAVGPGHGKFIVTTYLSTNQESLTAARVVPFLGSLLQGVTAILFVFILAVGLNLAAGDLSASRWYVEKISALTIGVFGAYVIFRALQSLWPTKQVIRRLTPAHQHDASCGCGHHGVGQDMQGADWKTRLGVVLAIGVRPCSGAIMILLFANALGIVSWGIAAVMSMALGTALSILGLSLLVHYARHRTVKRLVTNHRPRPWLVPLVKILGGLALILFAVGLFFSVVPISANGDFIAAGC | failed
MTTPNRFVAGAIDLGEVKARAEARSQAQRAGQSSVTEVEPTVTITMDNVEEQLIKRSMQVPVVVLIGTPRSPDSEQLRAD | failed
MTTPSRRILILVGHPDPAPERFCRALAEAYAQGAMEGGHEVRRADIGSMDIALLESQAAFQVDDAPQSIRDLRADIVWAEHLVLVFPLWLGGAPAKLKAALEQVCRGGFGFEVGPRGWSSKLAGRSARMVLTMGMPSAIFRLVFGSHGLKAVTQGIFMLAGVKPRRASIIGGVEAIGAGGRSRWLKRMGHLGEAAR | failed
MTTPTPTPTPTSQSLAAPFAQGVEGVYFDGRSSRDRAATLRVLGSGDLSSGAPLAVLRVAPTDGEPGSEQQWPLRQVQFDPPLAGVRRVVKLPDGGRFETNDDRAITALEAAVGRNRGLRGVRRLESDWGLTLGAVVTLGLFVWGFLTYGLPAMARSAAAATPRSVLTSFDTSAIEVLDNGTFMGPTHLSAARQAQLQREFKDVAQWAGGGYPYRLLLRDGTPQANGDKDSPAPSGSIGTNAFALPGGTVVMTEQLVKLAHSDRELMGVLAHETGHVTHRHSLSSIYQGLGLTLLTTAVTGDLIGASTFAAAVPTWLLKNGYSRQSETQSDEVAGRFLMERYGTTKPLRDVLARLETEDENADENSVKRDDPGAFLQTHPGTAERIRHLREIEQNWPQRRGK | failed
MTTRLLQLTRPHYRLLSLPLQKPFNIKRQMSAANPSPFGNYLNTITKSLQQNLQTCFHFQAKEIDIIESPSQFYDLLKTKILNSQNRIFIASLYLGKSETELVDCISQALTKNPKLKVSFLLDGLRGTRELPSACSATLLSSLVAKYGSERVDCRLYKTPAYHGWKKVLVPKRFNEGLGLQHMKIYGFDNEVILSGANLSNDYFTNRQDRYYLFKSRNFSNYYFKLHQLISSFSYQIIKPMVDGSINIIWPDSNPTVEPTKNKRLFLREASQLLDGFLKSSKQSLPITAVGQFSTLVYPISQFTPLFPKYNDKSTEKRTILSLLSTITSNAISWTFTAGYFNILPDIKAKLLATPVAEANVITASPFANGFYQSKGVSSNLPGAYLYLSKKFLQDVCRYRQDHAITLREWQRGVVNKPNGWSYHAKGIWLSARDKNDANNWKPFITVIGSSNYTRRAYSLDLESNALIITRDEELRKKMKAELDNLLQYTKPVTLEDFQSDPERHVGTGVKIATSILGKKL | failed
MTTRRLALFDLDHTLLPLDSDYQWADFLARTGRAGDPAEARRRNDDLMERYNRGELTAEQAAEFMLGLLAAHSPVELAAWHEEFMRDVIRPSLTAQAVDVVRGHLAAGDLCALVTATNSFVTAPIARAFGVQHLIATDPEYRDGRYTGRIEGTPSFREGKVVRVNQWLAGMGLALGDFAESYFYSDSVNDVPLLEAVTRPIAANPSPGLREIAQARGWQVIDLFDHLEDAKS | not failed
MTTSKVTYQGDLRTSAIHLQSNNEIITDAPVDNQGKGEAFSPTDLLATSLASCMLTIIGIKARDMEIDIAGTTAEVTKVMAADPRRVSEVHIAITFNQELDDKTQKIFYNTALTCPVAKSIHPDIFQKVIIHSKSY | not failed
MTTWKELTDNNPAHSENYAQRWRNLAAAGNDIYGEARLIDAMAPRGAKILDAGCGQGRIGGYLSKQGHDVLGTDLDPILIDYAKQDFPEARWVVGDLSVDQISETDFDLIVSAGNVMGFLAEDGREPALANIHRALGADGRAVIGFGAGRGWVFGDFLEVAERVGLELENAFESWDLKPFVQGSEFLVAVFTKK | not failed
MTVAPTTHVPPARPAAYRELVRQRNSFTVAMTLTFLVLYFLLPLLAGYNKPLMATKVFGNVTFGYVLAFLEFLMGWVMAAIYVRKARTFDRLALEAQVPGGGA | failed
MTVDEWRLLDVSTAFGSGENSVPDFGESADDDAVVVWLVKGEEAVEKLSEIVFGVNLVLENHLKHGLSEI | failed
